The text below walks through data of publication PMC12299905, “Pathogen Enzyme-Mediated Alkoxyamine Homolysis as a Killing Mechanism of Aspergillus fumigatus” (Journal of Fungi, 2025).

≈ marks a conversion by molar mass, not a printed value.

In general, MIC refers to the lowest concentration that inhibits growth of the organism.

A short description of data set [1]: Homolysis kinetics / stability of alkoxyamines by EPR. The data set is classed as physicochemical. The conditions noted are these: for activation energy Ea of homolysis: from kd by Arrhenius law. The method, then:
Homolysis constants were measured by Electronic Paramagnetic Resonance (EPR) on a EMX Bruker spectrometer, with O2 as the alkyl radical scavenger, as previously reported. Thermic activation led to the liberation of nitroxide: (2,2,6,6-tetramethylpiperidin-1-yl)oxyl (TEMPO). The details of the kinetic experiments in aqueous or solvent phases and the values of homolysis rate constants (kd), activation energies (Ea), and half-life times (t1/2) are reported in Supplementary Information and Data (see below).
Indeed, the activation energies of these alkoxyamines range from 121 to 140 kJ/mol with half-life times longer than 10 days (Supplementary Table S1). Moreover, the values were measured for a mixture of the two diastereoisomers. […] The solvent effect (i.e., t-BuPh) versus H2O/1-PrOH (99:1) was also investigated. […] Overall, there is no stability concern for these molecules with respect to the subsequent biological studies.
EPR kinetic figures of homolysis rate constants ( kd), activation energies ( Ea) and half-life
Molecule Solvent T (°C)a kd (s-1)b,c Ea (kJ·mol-1)d t1/2(37 °C) (days)

Data set [2] deals with Ku80 azole-susceptible strain. Put plainly: Exposure of A. fumigatus spores to alkoxyamines, azole-susceptible strain. The data set is classed as cell-based. The following applies: Aspergillus fumigatus. As to the method:
(§1) Ku80 azole-susceptible strain and FC240 azole-resistant strain were kindly provided by Prof. J.-P. Latge and Dr E. Fréalle (Lille University Hospitals, Lille, France). The latter strain harbors a 34 bp tandem repeat mutation (TR34) in the cyp51A gene promoter combined with a substitution in codon L98H. The strains of A. fumigatus were used for spore preparation as previously described. Briefly, spores were grown from frozen stocks on Sabouraud + Chloramphenicol agar tubes (BioMérieux, Marcy l’Etoile, France) at 37 °C for 7 days. Next, conidia were collected by scraping and suspending in PBS containing 0.01% Tween 20 (Sigma-Aldrich®, St. Louis, MO, USA). Spore counting was performed using a Kova® hemacytometer, and aliquots of 10^6 spores were prepared.
(§2) A. fumigatus spores were exposed to various concentrations of alkoxyamines (1, 10, 100, and 1000 µM), with each concentration in triplicate. Controls were grown alone (without alkoxyamine treatment) or exposed to the antifungal voriconazole under the same experimental conditions. Briefly, the reactions were performed in well plates in a total volume of 250 μL RPMI medium. At the end of the incubation time period (48 h), the optical densities (OD600 nm) of scrapped cultures were recorded in one set of the reactions using a spectrophotometer (Thermo Fisher Scientific, Illkirch, France). […] Experiments were repeated at least three times.

Data set [3] has as its system FC240 azole-resistant strain. The experiment in a line: Exposure of A. fumigatus spores to alkoxyamines, azole-resistant strain. The conditions noted are these: Aspergillus fumigatus. The data set is classed as cell-based. As to the method:
as §1, §2

[4] abbreviates: t-BuPh, mixture of two diastereoisomers.
[5] abbreviates: H2O/1-PrOH 99:1, extrapolated to 37 °C.
Where [6] appears, read: t-BuPh/DCM 99:1, extrapolated to 37 °C.

As to `CC(ON1C(C)(C)CCCC1(C)C)c1ccc(NC(=O)[C@@H]2CCCN2C(=O)CNC(=O)OCC2c3ccccc3-c3ccccc32)cc1` (stereo partly shown) [4a], the “activation energy Ea of homolysis” value in data set [1] (setting [4]) was determined as 33.34 kcal/mol.

Consider `CC(ON1C(C)(C)CCCC1(C)C)c1ccc(NC(=O)[C@@H]2CCCN2C(=O)CNC(=O)CCC(=O)O)cc1` (stereo partly shown) [VIa], for which the “half-life time t1/2 (37 °C) of homolysis” value in data set [1] (setting [5]) is 10 days; in data set [1] (setting [6]) it was 1519 days. Further, the “activation energy Ea of homolysis” value was 29.06 kcal/mol in data set [1] (H2O/1-PrOH 99:1) and 32.15 kcal/mol in data set [1] (t-BuPh/DCM 99:1).

As to `C[C@@H](c1ncncc1F)[C@](O)(Cn1cncn1)c1ccc(F)cc1F` [voriconazole], the MIC stood at 0.25 µg/mL (≈ 0.716 µM) in data set [2] and 4 µg/mL (≈ 11.5 µM) in data set [3].

In the case of `CC(ON1C(C)(C)CCCC1(C)C)c1ccc(NC(=O)[C@@H]2CCCN2C(=O)[C@H](C)NC(=O)CCC(=O)O)cc1` (stereo partly shown) [VIb], the “half-life time t1/2 (37 °C) of homolysis” value in data set [1] (setting [5]) was 199 days; in data set [1] (setting [6]), 3632 days. The entries for the “activation energy Ea of homolysis” value in data set [1] (H2O/1-PrOH 99:1) and in data set [1] (t-BuPh/DCM 99:1) were 30.9 kcal/mol and 32.7 kcal/mol, respectively.

With `CC(ON1C(C)(C)CCCC1(C)C)c1ccc(NC(=O)[C@@H]2CCCN2)cc1` (stereo partly shown) [compound 3], in data set [1] (setting [6]), the “half-life time t1/2 (37 °C) of homolysis” value is 2554 days. Also, the “activation energy Ea of homolysis” value in data set [1] (t-BuPh/DCM 99:1) is 32.48 kcal/mol.

Regarding `CC(ON1C(C)(C)CCCC1(C)C)c1ccc(NC(=O)[C@@H]2CCCN2C(=O)[C@H](C)NC(=O)OCC2c3ccccc3-c3ccccc32)cc1` (stereo partly shown) [4b], the “activation energy Ea of homolysis” value in data set [1] (setting [4]) came to 33.15 kcal/mol.

Turning to `CC(ON1C(C)(C)CCCC1(C)C)c1ccc(NC(=O)[C@@H]2CCCN2C(=O)OC(C)(C)C)cc1` (stereo partly shown) [compound 2], in data set [1] (t-BuPh, extrapolated to 37 °C), the “half-life time t1/2 (37 °C) of homolysis” value is on record as 5395 days. The “activation energy Ea of homolysis” value in data set [1] (setting [4]) was determined as 32.93 kcal/mol.
